In patent US20130210151 one finds activity data, which are given here for 2 substances.

For series [1], the system named is I-BmoI. Description: cleavage_in_vitro. Particulars: one-site plasmid; two-site 0.096.
The subject of series [2] is TevN201-ZFE (synthetic). Briefly: cell_activity.

TevN201-ZFE (synthetic), sequence (chain, as listed by the source): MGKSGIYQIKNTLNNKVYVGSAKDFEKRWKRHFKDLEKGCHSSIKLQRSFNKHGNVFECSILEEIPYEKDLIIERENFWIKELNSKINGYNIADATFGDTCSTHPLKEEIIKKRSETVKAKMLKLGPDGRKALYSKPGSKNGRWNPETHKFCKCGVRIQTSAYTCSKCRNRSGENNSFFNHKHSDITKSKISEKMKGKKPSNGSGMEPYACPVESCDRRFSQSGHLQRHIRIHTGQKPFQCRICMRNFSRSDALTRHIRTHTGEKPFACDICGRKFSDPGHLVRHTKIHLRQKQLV
I-BmoI, sequence (chain, as listed by the source): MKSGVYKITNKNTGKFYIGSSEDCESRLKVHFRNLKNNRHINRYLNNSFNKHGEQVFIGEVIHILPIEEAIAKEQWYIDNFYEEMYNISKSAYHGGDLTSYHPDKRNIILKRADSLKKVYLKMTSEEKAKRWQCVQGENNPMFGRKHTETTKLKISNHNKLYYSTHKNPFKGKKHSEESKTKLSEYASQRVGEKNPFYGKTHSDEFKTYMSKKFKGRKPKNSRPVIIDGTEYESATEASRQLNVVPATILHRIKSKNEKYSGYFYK

Regarding pBmoIHS thyA homing site plasmid, the activity in series [1] is 0.105 s-1 (kobs).
With “p11-lacY-wtx1 plasmid without target site”, the activity in series [2] turned out to be 0 % survival.
